The target of data set [1] is control peptide, an HES-bearing peptide of the same length, with the same labeling, that does not contain the conformation-dependent cleavage site.
Data set [2] deals with eighteen amino acid peptide containing the amino acid sequence PLGIA, covalently labeled with the same fluorophore near each end (HES structure).

This is an account of results in patent publication US20230201361.

B1: MMP-19 (protein)
chain: YLLLGRWRKKHLTFRILNLPSTLPPHTARAALRQAFQDWSNVAPLTFQEVQAGAADIRLSFHGRQSSYCSNTFDGPGRVLAHADIPELGSVHFDEDEFWTEGTYRGVNLRIIAAHEVGHALGLGHSRYSQALMAPVYEGYRPHFKLHPDDVAGIQALYGKKSPVIRDEEEEETELPTVPPVPTEPSPMPDPCSSELDAMMLGPRGKTYAFKGDYVWTVSDSGPGPLFRVSALWEGLPGNLDAAVYSPRTQWIHFFKGDKVWRYINFKMSPGFPKKLNRVEPNLDAALYWPLNQKVFLFKGSGYWQWDELARTDFSSYPKPIKGLFTGVPNQPSAAMSWQDGRVYFFKGKVYWRLNQQLRVEKGYPRNISHNWMHCRPRTIDTTPSGGNTTPSGTGITLDTTLSATETTFEY
Regarding B1, the fluorescence intensity entry in data set [1] is given as “The fluorescence of the latter does not increase upon addition of the MMP”; in data set [2], “Cleavage of the peptide gives rise to an increase in fluorescence intensity”.
